Data reported in publication PMC12474171.

Tests used:
[1] = target: AAVpo.1 capsid (porcine adeno-associated virus po.1; VP1, VP2 and VP3) (adeno-associated virus AAVpo.1 (isolated from porcine tissues)); assay: cryo-EM structure
[2] = target: AAVpo.6 capsid (porcine adeno-associated virus po.6; VP1, VP2 and VP3) (adeno-associated virus AAVpo.6 (isolated from porcine tissues)); assay: cryo-EM structure

AAVpo.1 capsid (porcine adeno-associated virus po.1; VP1, VP2 and VP3) (complex)
stoichiometry N [1]: 60

AAVpo.6 capsid (porcine adeno-associated virus po.6; VP1, VP2 and VP3) (complex)
stoichiometry N [2]: 60
